Measured values from publication PMC10353998 (2023).

B1: eGFP-GGSG-Flag-RBM20-WT [human] / Transportin-3 [human (endogenous in HeLa)] (parent complex)
chain 1: MVLAAAMSQDADPSGPEQPDRVACSVPGARASPAPSGPRGMQQPPPPPQPPPPPQAGLPQIIQNAAKLLDKNPFSVSNPNPLLPSPASLQLAQLQAQLTLHRLKLAQTAVTNNTAAATVLNQVLSKVAMSQPLFNQLRHPSVITGPHGHAGVPQHAAAIPSTRFPSNAIAFSPPSQTRGPGPSMNLPNQPPSAMVMHPFTGVMPQTPGQPAVILGIGKTGPAPATAGFYEYGKASSGQTYGPETDGQPGFLPSSASTSGSVTYEGHYSHTGQDGQAAFSKDFYGPNSQGSHVASGFPAEQAGGLKSEVGPLLQGTNSQWESPHGFSGQSKPDLTAGPMWPPPHNQPYELYDPEEPTSDRTPPSFGGRLNNSKQGFIGAGRRAKEDQALLSVRPLQAHELNDFHGVAPLHLPHICSICDKKVFDLKDWELHVKGKLHAQKCLVFSENAGIRCILGSAEGTLCASPNSTAVYNPAGNEDYASNLGTSYVPIPARSFTQSSPTFPLASVGTTFAQRKGAGRVVHICNLPEGSCTENDVINLGLPFGKVTNYILMKSTNQAFLEMAYTEAAQAMVQYYQEKSAVINGEKLLIRMSKRYKELQLKKPGKAVAAIIQDIHSQRERDMFREADRYGPERPRSRSPVSRSLSPRSHTPSFTSCSSSHSPPGPSRADWGNGRDSWEHSPYARREEERDPAPWRDNGDDKRDRMDPWAHDRKHHPRQLDKAELDERPEGGRPHREKYPRSGSPNLPHSVSSYKSREDGYYRKEPKAKSDKYLKQQQDAPGRSRRKDEARLRESRHPHPDDSGKEDGLGPKVTRAPEGAKAKQNEKNKTKRTDRDQEGADDRKENTMAENEAGKEEQEGMEESPQSVGRQEKEAEFSDPENTRTKKEQDWESESEAEGESWYPTNMEELVTVDEVGEEEDFIVEPDIPELEEIVPIDQKDKICPETCLCVTTTLDLDLAQDFPKEGVKAVGNGAAEISLKSPRELPSASTSCPSDMDVEMPGLNLDAERKPAESETGLSLEDSDCYEKEAKGVESSDVHPAPTVQQMSSPKPAEERARQPSPFVDDCKTRGTPEDGACEGSPLEEKASPPIETDLQNQACQEVLTPENSRYVEMKSLEVRSPEYTEVELKQPLSLPSWEPEDVFSELSIPLGVEFVVPRTGFYCKLCGLFYTSEETAKMSHCRSAVHYRNLQKYLSQLAEEGLKETEGADSPRPEDSGIVPRFERKKL
chain 2: MEGAKPTLQLVYQAVQALYHDPDPSGKERASFWLGELQRSVHAWEISDQLLQIRQDVESCYFAAQTMKMKIQTSFYELPTDSHASLRDSLLTHIQNLKDLSPVIVTQLALAIADLALQMPSWKGCVQTLVEKYSNDVTSLPFLLEILTVLPEEVHSRSLRIGANRRTEIIEDLAFYSSTVVSLLMTCVEKAGTDEKMLMKVFRCLGSWFNLGVLDSNFMANNKLLALLFEVLQQDKTSSNLHEAASDCVCSALYAIENVETNLPLAMQLFQGVLTLETAYHMAVAREDLDKVLNYCRIFTELCETFLEKIVCTPGQGLGDLRTLELLLICAGHPQYEVVEISFNFWYRLGEHLYKTNDEVIHGIFKAYIQRLLHALARHCQLEPDHEGVPEETDDFGEFRMRVSDLVKDLIFLIGSMECFAQLYSTLKEGNPPWEVTEAVLFIMAAIAKSVDPENNPTLVEVLEGVVRLPETVHTAVRYTSIELVGEMSEVVDRNPQFLDPVLGYLMKGLCEKPLASAAAKAIHNICSVCRDHMAQHFNGLLEIARSLDSFLLSPEAAVGLLKGTALVLARLPLDKITECLSELCSVQVMALKKLLSQEPSNGISSDPTVFLDRLAVIFRHTNPIVENGQTHPCQKVIQEIWPVLSETLNKHRADNRIVERCCRCLRFAVRCVGKGSAALLQPLVTQMVNVYHVHQHSCFLYLGSILVDEYGMEEGCRQGLLDMLQALCIPTFQLLEQQNGLQNHPDTVDDLFRLATRFIQRSPVTLLRSQVVIPILQWAIASTTLDHRDANCSVMRFLRDLIHTGVANDHEEDFELRKELIGQVMNQLGQQLVSQLLHTCCFCLPPYTLPDVAEVLWEIMQVDRPTFCRWLENSLKGLPKETTVGAVTVTHKQLTDFHKQVTSAEECKQVCWALRDFTRLFR

Variants of: B1
Assay: co-immunoprecipitation, mass spectrometry; cytoplasmic fractions, HeLa; normalized to Neg; n = 3; parent: 1.7; read off a plot

Row | Variant | screen value
1 | chain 1 R634Q, chain 1 S635E, chain 1 S637E | ~0.3
2 | chain 1 R634Q | ~0.9
3 | chain 1 P633L | ~1.5

Variants of: B1
Assay: co-immunoprecipitation, western blot quantification; HeLa cells expressing eGFP-RBM20, cytoplasmic fraction; n = 3; parent: 3.3; read off a plot

Row | Variant | response
4 | chain 1 R634Q, chain 1 S635E, chain 1 S637E | ~1.2 relative HRP signal
5 | chain 1 R634Q | ~1.6 relative HRP signal
6 | chain 1 P633L | ~2.4 relative HRP signal
